Among the data in publication PMC3335792 are Kd values, retold here.

This assay deals with E. coli β-clamp labeled with OregonGreen488 (E. coli β-clamp^OG) (E. coli), P0A988. Nature of the assay: other fluorescence titration; OregonGreen488-labeled β-clamp (50 or 100 nM in the methods, 90 nM in the legend) titrated with the partner protein; 20 mM Tris-Cl pH 7.5, 8 mM MgCl2, 1 mM DTT, 0.2 mM EDTA, 50 mM NaCl, 0.5 mM ATP, 22°C; emission at 510 nm; apparent Kd. The note with it: remark: other sources report otherwise.
E. coli β-clamp labeled with OregonGreen488 (E. coli β-clamp^OG) (E. coli), P0A988, sequence (P0A988 whole entry): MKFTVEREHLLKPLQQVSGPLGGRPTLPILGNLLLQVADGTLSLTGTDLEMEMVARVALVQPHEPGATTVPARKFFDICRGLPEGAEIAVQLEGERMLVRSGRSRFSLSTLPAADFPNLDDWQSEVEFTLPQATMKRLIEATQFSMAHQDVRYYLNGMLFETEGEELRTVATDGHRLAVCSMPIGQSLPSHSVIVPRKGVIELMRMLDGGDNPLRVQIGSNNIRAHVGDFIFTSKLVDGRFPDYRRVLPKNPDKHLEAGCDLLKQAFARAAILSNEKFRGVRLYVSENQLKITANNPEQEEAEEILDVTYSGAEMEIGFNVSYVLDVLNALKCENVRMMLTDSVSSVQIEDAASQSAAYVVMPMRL

B1: E. coli NAD+-dependent DNA ligase (E. coli LigA), P15042 1-671 (enzyme)
chain: MESIEQQLTELRTTLRHHEYLYHVMDAPEIPDAEYDRLMRELRELETKHPELITPDSPTQRVGAAPLAAFSQIRHEVPMLSLDNVFDEESFLAFNKRVQDRLKNNEKVTWCCELKLDGLAVSILYENGVLVSAATRGDGTTGEDITSNVRTIRAIPLKLHGENIPARLEVRGEVFLPQAGFEKINEDARRTGGKVFANPRNAAAGSLRQLDPRITAKRPLTFFCYGVGVLEGGELPDTHLGRLLQFKKWGLPVSDRVTLCESAEEVLAFYHKVEEDRPTLGFDIDGVVIKVNSLAQQEQLGFVARAPRWAVAFKFPAQEQMTFVRDVEFQVGRTGAITPVARLEPVHVAGVLVSNATLHNADEIERLGLRIGDKVVIRRAGDVIPQVVNVVLSERPEDTREVVFPTHCPVCGSDVERVEGEAVARCTGGLICGAQRKESLKHFVSRRAMDVDGMGDKIIDQLVEKEYVHTPADLFKLTAGKLTGLERMGPKSAQNVVNALEKAKETTFARFLYALGIREVGEATAAGLAAYFGTLEALEAASIEELQKVPDVGIVVASHVHNFFAEESNRNVISELLAEGVHWPAPIVINAEEIDSPFAGKTVVLTGSLSQMSRDDAKARLVELGAKVAGSVSKKTDLVIAGEAAGSKLAKAQELGIEVIDEAEMLRLLGS
modifications: here or on the partner: OregonGreen488 label (residue not stated)
Regarding B1, the Kd came to 42.5 nM.
